Data: the nanobody polyreactivity screen of Harvey et al. (2022)

Experiment: yeast display, Sf9 membrane polyspecificity reagent, FACS + sequencing; frameworks hold sequencing errors
How it was run: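 Synthetic nanobody libraries on Saccharomyces cerevisiae BJ5465 were galactose-induced for 36–48 hours, stained 1 hour at 4 °C with 10% biotinylated, detergent-solubilized Sf9 membrane reagent and enriched on streptavidin microbeads. FACS then separated cells into low and high (top ~1%) gates by anti-HA (expression) and streptavidin (reagent binding) fluorescence. Genes were colony-PCR amplified, MiSeq 2 × 250 sequenced and CDR-length filtered. A clone's polyreactivity label is that of its gate of origin.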

| Sequence | polyreactivity (PSR sort gate) |
| --- | --- |
| QVQLVESGGGLGQAGGSLRLSCAASGSIFSFYAMGWYRQAPGKERELVAVINTDGDNTYYADSVKGRFTISRDNAKNTVYLQMNSLKAEDSAVYYCAASVSSYSYTRGGYWGQGTQVTVSS | high polyreactivity |
| QVQLVESGGGLVQAGGSLRLSCAASGRTFRYYAMGWYRQAPGKERELVAAITVRTGSTSYADSVKGRFTISRDNAKNTVYLQMNSLKPEDTAVYYCAATSRYFQPPGYGGGRIGYGYWGQGTQVTVSS | high polyreactivity |
| QVQLVESGGGLVQAGGSLRLSCAASGRIFYYNTMGWYRQAPGKESELVAAISWSGGSTFYADSVKGRFTISRDNAKNTVYLQMNSLKPEDTAVYYCARYKLRSGRSGDHDDYWGQGTQVTVSS | high polyreactivity |
| QVQLVESGGGLVQAGGSLRLSCDASGTTFVFNAMGWYRHAPGKERELVAAISFSSDTTHYADSVKGRFTISRDNAKNTVYLQMNSLKPEDTAVYYCAADFVGYARNWYYFCGQGTQVTVSS | low polyreactivity |
| QVQLVESGGGLVQAGGSLRLSCAASGRIFLRYTMGWYRQAPGKDRELVAAISGGGSTNYADSVKGRFTISRDNAKNTVYLQMNSLKPEDTAVYYCAADYIWLSHPYRRVDFYYWGQGTQVTVSS | low polyreactivity |
| QVQLVESGGGLVQAGGSLRLSCAASGRIFLRYAMGWYRQAPGKERELVAVISSGGSTYYADSVKGRFTISSDNAKNTVYLQMNSLKPEDSAVYYCAASRHDSRYQYDYWGQGTQVTVSS | high polyreactivity |
| QVQLVESGGGLVQAGGSLRLICAASGRIFWGNAMGWYRQAPGKERELVAAINSIGGTTYYADSVKGRFTISRDNAKNTVYLQMNSLKPEDTAVYYCAAQTFVYRKELLSRYEYWGQGTQVTVSS | high polyreactivity |
| QVQLVESGGGLVQAGGSLRLSCAASGRTFQPYAMGWYRQAPGKERELVAAITSIGGSTFYADSVKGRFTISRDNAKNTVYLQMNSLKPEDTAVYYCNARRYWLRYDYWGQGTQVTVSS | low polyreactivity |
| QVQLVESGGGLVQAGGSLRLSCAASGRIFDANAMGWYRQAPGKERELVAAITVSGGSTYYADSVKGRFTISRDNAKNTVYLEMNSLKPEDTAVYYCAKSLVPWWYKVDYDYWGQGTQVTVSS | low polyreactivity |
| QVQLVESGGSLVQARGSLRLSCAASGFIFPYYVMGGYRHAPGQERELVAAITCGGITYYAESVKGRFTISRDNAKNTVYFLMTSLKPEDTVVYYCAAENKYFYAWGSFVDDEYWGQGTQVTVSS | high polyreactivity |
| QVQLVESGGGLVQAGGSLRLSCAASGFIFYAYAMGWYRQAPGKERELVAGISDSGASTYADSVKGRFTISRDNAKNTVYLQMNSLKPEDTAVYYCATTGYLSTKVYDEYGYWGQGTQVTVSS | low polyreactivity |
| QVQLVESGGGLVQAGGSLRLSCADSGRIFYRYAMGWYRQAPGKERELVAAITNSGGRTYYADSVKGRFTISRDNAKNTVYLQMNSVKPEDSAVYYCNAVKTSEYDYWGQGTQVTVSS | high polyreactivity |
| QVQLVESGGGLVQAGGSLLLSCAASGSTFSGYAMGWYRQAPRKESDLVASINWSGGSTYADSVKGRFTISRDNAKNTVYLQMNSLKPEDTAVYYCARRWRAYLYGGRDYWGQGTQVTVSS | low polyreactivity |
| QVQLVESGGGLVQAGGSLRLSCAASGSTLISYAMGSYRQAPGKERELDAAITYNGGTTHYADSVKGRLTISRDNAKNSVYLQLKSLKPEDTAVYYCAKAQGHVRVSRGLQGGRYDYWGQGTQVTVSS | low polyreactivity |
| QVQLVESGGGLVQAGGSLRLSCAASGRIFRDYGMGWYRQAPGKERELVAAINTSGRTYYADSVKGRFTISRDNAKNTVYLQMNSLKPEDTAVYYCATTSRELGELRIFDYWGQGSQVTVSS | low polyreactivity |
| QVHLVESGGGLVQAGGSLRLSCAASGRTYGVNAMGRYRQAPGKEREFVAAISKRGGSTYYADSVKGRFTISRDNAKNTVYLQMNSLKPEDTAGYYCAADYTTHYWGQGTQVTVSS | high polyreactivity |
| QVQLVESGGGLVQAGGSLRLSCAASRSIFYINAMGWYRQEPGKEMELVAAITSDGSTYYADSVKGRFTISRDNAKNTVYLQMNSLKPEDTAVYYCAADLTSDQYLYYWYWFYSWGQGTQVTVSS | low polyreactivity |
| QVHLVESGGGLVQAGGSLRLSSAASGSTFVFNAMAWYRQAPGKESELVAGISWSGGSTYYADSVKGRFTISRDNSKNTVYLQMKSLKPEDTAVYYCAVDGYFWGYYERDYSGQGTQVTVSS | low polyreactivity |
| QVQLVESGGGLVQAGGSLRLSCAASGRIFYAYAKGWYRPAPGKEREVVAAITRGGSTYYADSVKGRFTISRDNAKNTVYLQLNCLKREDTAVYSWAAQGYAPPLGESLGYWGEGTQVTVSS | low polyreactivity |
| QVQLVESGGGLVQAGGSLRLSCAASGFTFGSYAMGWYRPAPGKERELVAGISRGGSTNYADSVKGRFTISRDNAKNTVYLQMNSLKPEDTAVYYCAAYVIGPDQFIYDYWGQGTQVTVSS | low polyreactivity |
| QVQLVESGGGLVQAGGSLRLRCAASGRTVVYYAMGWSRPAAGKETEFVATITSSGGSTYYADSVKGRFTISRDNAKNSVYLQMNSLKPEDTAVNYCAASPNIGYSKVSKYYYRGQGTQVTVSS | high polyreactivity |
| QVQLVESGGGLVQAGGSLRLSCAASGRTFYSNAMGWYRQAPGKERELVAAISSSGARTYYADSVKGRFTISRDNAKNTVYLQMNSLKPEDTAVYYCNAPTQYRYYWGQGTQVTVSS | high polyreactivity |

| Sequence | polyreactivity (PSR sort gate) |
| --- | --- |
| QVQLVESGGGLVQAGGSLRLSCAASGFIFIRNAMGWYRQAPGKERELVAAISSGCRTYYADSVKGRFTISRDNAKNTVYLQMNSLKPEDTAVYYCATRPHRPRGHSVGQYDYWGQGTQVTVSS | high polyreactivity |
| QVQLVESGGGLVQAGGSLRLSCAASGFTRVVSTMGWYRQAPGKERELVATISYTDGSTYYADAVKGRFTISRDNAKNTDYLQMTSLKPEDTADYYCNASYPSSSYSYHVDYWGQGTQVTVSS | low polyreactivity |
| QVQLVESGGGIVQAGGSHRVICAASGRIFRRYTMGWYRQATGKERDLVATITWDGVSTYYADSVKGRFTISRDNAKKTDYLQMNSLKPEDTAGYYCAARRVYLVGGRYDSWGQGTQVTVSS | high polyreactivity |
| QVQLVDSAGGLVQSGGSQRLSCAASGSIFHVYPMGCYRQAPGKERELVAAIRRRGGSTYYADSVKGRFTISRDTAKNTVYLQMNSLKPEDTAVYYCAARSVGFYRYDYWGQGTQVTVSS | low polyreactivity |
| QVQLVESGGGLVQAGGSLRLRCAASGSIFFHNAMGWYRQAPVKERELVATINRSDGTYYADSVKGRFTISRDNAKNTVYFQMNSLKPEDTAVYYCAVDHSFNDELDYWGQGTQVTVSS | low polyreactivity |
| QVQLVESGGGLVQAGGSLRLSCAASGSIFTPYAMGWYRQAPGKERELVAAISDSVGSTYYADSVKGRFTISRDNAKNTVYLQMNSLKPEDTAVYYCAAEYWVYDSYWFDYDYWGQGTQVTVSS | high polyreactivity |
| QVQLVESGGGLVQAGGSLRLSCAASGSTFDYYDMGWYRQAPGKERELVATITSGGSTNYADSVKGRFTISRDNAKNTVYLQMNSLKPEDTAVYYCAADIGGDGEGYDYWGQGTQVTVSS | low polyreactivity |
| QVQLVESGGGLVQAGGSHRLSCAASGRTFYTNAMGWYRQEPGKERELVARIRRGGTTNYADSVKGRFTISRDNAKNTVYLQMNILKPEDTAVSYCNARRHGGVQPFYFYRNQYELDYWGLGTQVTVSS | high polyreactivity |
| QVQLVESGGGLVQAGGSLRLSCAASGRIFYTYAKGLSRQAPRKERELVATISNSGGSTYYADSVKGRFTISRDNAKNTVYLQMNSLKPEDTAVYSCAKDERAAPSASYAYYYWGQGTLVTVSS | low polyreactivity |
| QVQLVESGGGLVQAGGSLRLSWAASSIFRTYAMGWYRQAPGKERELVAAITWSGASTNYADSVKGRFTISRDNAKNTVYLQMNSLKPEDTAVYYCNADWRYYPSFKYYYWGQGTQVTVSS | high polyreactivity |
| QVQLVESGGGLVQAGGSLRLSSAASGSTFPVYALGWYRQAPGKERELVAAITRTGARTYYADSVKGRFTISRDNAKNTVYLQMNSLTPEDTAVYYCAARGAGGILGRYGYWGQGTKVTVSS | high polyreactivity |
| QVQLVESGGGLVQAGGSLRLSCAASGRIFRNYAMGWYRQAPGKERELVAAISVSGGRTYYADSVKGRFTISRDNAKNTVYLQMNSLKPEDTAVYYCAARTGRQGYSRGYNSWGQGTQVTVSS | high polyreactivity |
| QVQLVESGGGLVQAGGSLRLSCAASGSTFGWYAMGGYRQAPGKERELVAAISASGGATYYADSVKGRFTISRDNAKNTVYLQMNSLKPEDTAVYYCAAVRYPNWYDYWGQGTQVTVSS | high polyreactivity |
| QVQLVESGGGLVQAGGSLRLSCAASGRTFYSYAKGWYRQAPGKERELVASITSTGSTYYADSVKGRFTISRDNAKNTVYLQMNSLKPEDTAVYYCAARRQPRYSQRSTYYYWGQGTQVTVSS | high polyreactivity |
| QVQLVESGGGLVQAGGSLRLSCAASGRTFVPYAMGWYRQAPGKERELVASITRSGGRTYYADSVKGRFTISRDNAKNTVYLQMNSLKPEDTAVYYCAVDWSVYYRTYDYWGQGTQVTVSS | high polyreactivity |
| QVQLVESGGRLVQAGGSLRLSCAASGGTLTSNPMGWYRPAPGKERELVAAINKSGGSTYYADSVKGRFTISRDNAKNTVYLQMNSLKPEDTAVYYCAARFYYWVSGGLVKYNYWGQGTQVTVSS | high polyreactivity |
| QVQLVESGGGLVQAGGSLRLSCAASGSIFTYYAMGWYRQAPGKERELVAAINWSGGSTYYADSVKGRFTISRDNAKNTVYLQMNSLKPEDTAVYYCATDYYARRHSPRYDYWGQGTQVTVSS | low polyreactivity |
| QVQLVASGGGLVQAGGSLRLSSAASGYIFAPNAMGWYRQAPGKERELVAAITFSGGSTSYADSVKGRFTISRDNAKNTVYLQMNSLKPEDTAVYYCNRDDAGIMDYWGLGTQVTVSS | low polyreactivity |
| QVQLVESGGGLVQAGGSLRLSCAASGRIFTINAMGWYRQAPGKERELVATISDRGGSTYYADTVKGRFTISRDNAKNTVYLQMNSLKPEDTAVYYCAARWGRGLEFDYWGQGTQVTVSS | high polyreactivity |
| QVQLVESGGDLVQAGGSLRLSCAASGRSYKYNDMGWYRQAPRKERELVADISSGVSTYYADSVKGRFTISRDNAKNTVYLQMNSLKPEDTAVYYFNAYSDGDEDYWGQGTQVTVSS | low polyreactivity |
| QVQLVESGGGLVQAGGSLRLSCAASGSTFLINVLGWYRQAPGKERELVARISWRAATTYYADSVKGRFTISRDNAKNTVYLPMYSLQPEDTAVYYCADDLYKRGFDYWGQGTQVTVSS | low polyreactivity |
